Assay results taken from US20210171647A1 (WUXI BIOLOGICS SHANGHAI, published 2021).

Experiments:
Assay in all cases: ELISA, antibody coated, OX40-ECD.His mutant supernatant; relative to silent alanine substitutions;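 further: captured OX40 mutant protein detected with HRP-labelled anti-His antibody, absorbance read-out, scaled to the mean signal of control mutants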
human OX40-ECD.His D168A = biological target: T1, human OX40-ECD.His D168A (human, UniProt P43489 29-214)
T1 construct: extracellular domain; not shown: C-terminal His-tag
T1 sequence (looked up): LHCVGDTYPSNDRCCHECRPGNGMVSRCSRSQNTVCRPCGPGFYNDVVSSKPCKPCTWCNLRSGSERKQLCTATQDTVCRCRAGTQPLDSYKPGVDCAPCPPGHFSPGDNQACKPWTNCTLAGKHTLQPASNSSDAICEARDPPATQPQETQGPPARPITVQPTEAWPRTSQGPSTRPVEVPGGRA

human OX40-ECD.His K152A = biological target: T2, human OX40-ECD.His K152A (human, UniProt P43489 29-214)
T2 construct: extracellular domain; not shown: C-terminal His-tag
T2 sequence (looked up): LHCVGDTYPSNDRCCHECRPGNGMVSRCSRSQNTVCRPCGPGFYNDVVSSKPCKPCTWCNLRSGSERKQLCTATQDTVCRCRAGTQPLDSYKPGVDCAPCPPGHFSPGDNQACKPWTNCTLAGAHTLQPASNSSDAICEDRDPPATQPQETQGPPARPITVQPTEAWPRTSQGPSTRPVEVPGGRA

human OX40-ECD.His P135A = biological target: T3, human OX40-ECD.His P135A (human, UniProt P43489 29-214)
T3 construct: extracellular domain; not shown: C-terminal His-tag
T3 sequence (looked up): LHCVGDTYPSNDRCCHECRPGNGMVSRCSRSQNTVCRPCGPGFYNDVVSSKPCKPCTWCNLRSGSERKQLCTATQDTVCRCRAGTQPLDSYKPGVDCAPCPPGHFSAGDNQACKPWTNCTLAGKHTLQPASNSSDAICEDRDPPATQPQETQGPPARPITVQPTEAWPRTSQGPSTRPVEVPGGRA

human OX40-ECD.His T102A = biological target: T4, human OX40-ECD.His T102A (human, UniProt P43489 29-214)
T4 construct: extracellular domain; not shown: C-terminal His-tag
T4 sequence (looked up): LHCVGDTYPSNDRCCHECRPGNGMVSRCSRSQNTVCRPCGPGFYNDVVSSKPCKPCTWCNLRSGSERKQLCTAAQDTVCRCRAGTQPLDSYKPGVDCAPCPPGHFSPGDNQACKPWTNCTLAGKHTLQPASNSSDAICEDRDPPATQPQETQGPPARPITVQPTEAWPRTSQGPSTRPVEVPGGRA

human OX40-ECD.His R41A = biological target: T5, human OX40-ECD.His R41A (human, UniProt P43489 29-214)
T5 construct: extracellular domain; not shown: C-terminal His-tag
T5 sequence (looked up): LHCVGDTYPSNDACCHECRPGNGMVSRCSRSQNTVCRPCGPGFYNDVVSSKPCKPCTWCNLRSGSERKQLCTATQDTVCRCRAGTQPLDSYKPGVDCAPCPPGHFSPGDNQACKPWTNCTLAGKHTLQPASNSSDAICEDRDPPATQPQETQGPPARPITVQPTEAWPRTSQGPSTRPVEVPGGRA

human OX40-ECD.His V53A = biological target: T6, human OX40-ECD.His V53A (human, UniProt P43489 29-214)
T6 construct: extracellular domain; not shown: C-terminal His-tag
T6 sequence (looked up): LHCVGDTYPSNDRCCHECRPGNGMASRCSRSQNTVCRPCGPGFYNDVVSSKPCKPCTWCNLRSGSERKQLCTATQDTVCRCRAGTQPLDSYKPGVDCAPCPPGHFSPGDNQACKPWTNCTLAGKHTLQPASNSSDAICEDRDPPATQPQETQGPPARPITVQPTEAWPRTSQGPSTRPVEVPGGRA

human OX40-ECD.His R55A = biological target: T7, human OX40-ECD.His R55A (human, UniProt P43489 29-214)
T7 construct: extracellular domain; not shown: C-terminal His-tag
T7 sequence (looked up): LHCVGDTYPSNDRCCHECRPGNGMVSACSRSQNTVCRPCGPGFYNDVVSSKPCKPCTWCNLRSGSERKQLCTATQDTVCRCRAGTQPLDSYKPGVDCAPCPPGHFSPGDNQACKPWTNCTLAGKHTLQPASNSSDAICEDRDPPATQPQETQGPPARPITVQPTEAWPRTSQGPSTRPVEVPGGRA

human OX40-ECD.His R65A = biological target: T8, human OX40-ECD.His R65A (human, UniProt P43489 29-214)
T8 construct: extracellular domain; not shown: C-terminal His-tag
T8 sequence (looked up): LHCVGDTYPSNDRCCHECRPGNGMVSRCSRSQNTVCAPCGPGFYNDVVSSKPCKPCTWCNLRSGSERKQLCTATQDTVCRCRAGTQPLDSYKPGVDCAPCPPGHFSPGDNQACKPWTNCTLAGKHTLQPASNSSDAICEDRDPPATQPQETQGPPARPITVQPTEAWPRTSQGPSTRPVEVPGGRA

human OX40-ECD.His M52A = biological target: T9, human OX40-ECD.His M52A (human, UniProt P43489 29-214)
T9 construct: extracellular domain; not shown: C-terminal His-tag
T9 sequence (looked up): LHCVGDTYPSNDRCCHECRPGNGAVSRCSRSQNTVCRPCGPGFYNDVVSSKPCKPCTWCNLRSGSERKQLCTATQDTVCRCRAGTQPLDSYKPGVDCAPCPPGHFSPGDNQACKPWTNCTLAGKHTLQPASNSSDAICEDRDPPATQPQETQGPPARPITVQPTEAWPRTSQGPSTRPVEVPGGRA

human OX40-ECD.His P157A = biological target: T10, human OX40-ECD.His P157A (human, UniProt P43489 29-214)
T10 construct: extracellular domain; not shown: C-terminal His-tag
T10 sequence (looked up): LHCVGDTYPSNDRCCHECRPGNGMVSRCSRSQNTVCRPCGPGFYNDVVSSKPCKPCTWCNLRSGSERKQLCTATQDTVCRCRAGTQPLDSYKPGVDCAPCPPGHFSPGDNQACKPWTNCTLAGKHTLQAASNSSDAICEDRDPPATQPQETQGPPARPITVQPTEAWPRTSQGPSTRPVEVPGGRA

B1: 1.134.9-u1-IgG1L (antibody, V domains shown)
VH: QVQLQESGPGLVKPSGTLSLTCAVSGGSISSYNWWSWVRQPPGKGLEWIGEIYHGGNTNYNPSLKSRVTMSVDNSKNQFSLKLSSVTAADTAVYYCARAPGDWGGSPYFDFWGQGTLVTVSS
VL: SSELTQDPAVSVALGQTVRITCQGDNLRTYYASWYQQKPGQAPILLIYGRNKRPSGIPDRFSGSSSGNTASLTITGAQAEDEAAYYCNSRDSSGNPVVFGGGTKLTVL
notes: fully human IgG1, lambda
Fold Change (human OX40-ECD.His D168A): 0.983 | Fold Change (human OX40-ECD.His K152A): 0.81 | Fold Change (human OX40-ECD.His P135A): 0.899 | Fold Change (human OX40-ECD.His T102A): 0.94 | Fold Change (human OX40-ECD.His R41A): 0.958 | Fold Change (human OX40-ECD.His V53A): 0.896 | Fold Change (human OX40-ECD.His R55A): 0.976 | Fold Change (human OX40-ECD.His R65A): 0.996 | Fold Change (human OX40-ECD.His M52A): 0.977 | Fold Change (human OX40-ECD.His P157A): 0.992
